Each block holds one binder with its values, some of them ahead of it.
Assays:
[1] = target: T1, cynomolgus OX40 expressed on DO11.10 cells (DO11.10-cOX40) (cynomolgus, UniProt P43489 29-277 (human entry)); assay: flow cytometry on DO11.10 cells expressing the target
T1 chain: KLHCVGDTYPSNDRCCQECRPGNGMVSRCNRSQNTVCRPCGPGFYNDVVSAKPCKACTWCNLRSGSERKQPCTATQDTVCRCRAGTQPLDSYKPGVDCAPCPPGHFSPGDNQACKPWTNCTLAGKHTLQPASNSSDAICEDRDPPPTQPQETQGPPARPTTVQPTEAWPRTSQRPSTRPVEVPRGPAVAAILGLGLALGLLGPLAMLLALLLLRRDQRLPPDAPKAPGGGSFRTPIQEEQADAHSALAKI
Description: (§1) 50 μl of the antibody dilutions were added to the wells containing cells (final volume 100 μl) and incubated at 4° C. for 1 hour. […] The plates were washed and resuspended in 100 μl of PBS containing DAPI (Biotium, cat no 40043) at 1 μg/ml. The plates were analysed using a Canto II flow cytometer (BD Bioscience) and the data analysed using FlowJo. Dead cells were identified by their higher fluorescence on the UV (405 nm/450/50) channel and excluded from analysis. […] The GMFI data was fit using log (agonist) vs response (three parameters) in Graph Pad Prism Software to generate EC₅₀ values.

[2] = target: T2, human OX40 expressed on DO11.10 cells (DO11.10-hOX40) (human, UniProt P43489 29-277); assay: as above
T2 construct: Also used here for OX40 on primary human T cells in the functional rows; also called human OX40 receptor; OX40 on human T cells
T2 sequence: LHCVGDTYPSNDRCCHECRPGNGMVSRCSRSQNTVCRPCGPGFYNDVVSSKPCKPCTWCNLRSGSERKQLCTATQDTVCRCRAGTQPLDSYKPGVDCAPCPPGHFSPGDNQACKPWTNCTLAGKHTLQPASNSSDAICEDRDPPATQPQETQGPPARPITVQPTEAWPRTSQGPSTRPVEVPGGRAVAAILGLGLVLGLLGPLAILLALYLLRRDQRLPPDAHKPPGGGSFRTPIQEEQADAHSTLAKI
Description: as §1

hOX40-mFc [3] = target: T3, hOX40-mFc (human); assay: SPR, antibody captured via anti-human Fab, antigen flowed
T3 construct: Dimeric; also called human OX40-mFc
T3 chain: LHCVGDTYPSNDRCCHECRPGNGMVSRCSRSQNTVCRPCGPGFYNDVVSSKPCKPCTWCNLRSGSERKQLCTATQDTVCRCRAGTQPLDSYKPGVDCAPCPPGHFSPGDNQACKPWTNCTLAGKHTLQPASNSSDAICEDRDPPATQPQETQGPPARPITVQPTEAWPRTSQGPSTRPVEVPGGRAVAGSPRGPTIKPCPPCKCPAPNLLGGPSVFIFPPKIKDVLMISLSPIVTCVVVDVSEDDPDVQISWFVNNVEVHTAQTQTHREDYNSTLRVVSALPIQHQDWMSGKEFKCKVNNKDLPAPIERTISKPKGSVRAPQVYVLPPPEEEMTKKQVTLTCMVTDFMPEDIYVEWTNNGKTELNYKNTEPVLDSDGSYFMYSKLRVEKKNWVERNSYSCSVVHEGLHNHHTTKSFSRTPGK

cOX40-mFc = target: T4, cOX40-mFc (cynomolgus); assay: as above
T4 construct: Dimeric; also called cyno OX40-mFc
T4 chain: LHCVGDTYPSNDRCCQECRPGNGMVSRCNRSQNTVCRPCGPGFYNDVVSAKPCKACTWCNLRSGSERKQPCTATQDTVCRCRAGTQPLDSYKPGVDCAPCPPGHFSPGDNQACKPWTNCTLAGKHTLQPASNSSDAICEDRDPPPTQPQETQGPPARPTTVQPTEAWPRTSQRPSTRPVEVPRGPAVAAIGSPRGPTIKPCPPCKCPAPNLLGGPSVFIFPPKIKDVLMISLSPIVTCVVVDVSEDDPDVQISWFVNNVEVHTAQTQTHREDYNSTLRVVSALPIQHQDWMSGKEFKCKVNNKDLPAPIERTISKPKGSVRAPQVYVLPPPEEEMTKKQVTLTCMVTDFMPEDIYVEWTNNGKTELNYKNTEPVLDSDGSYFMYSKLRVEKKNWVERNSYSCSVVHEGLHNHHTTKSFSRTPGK

[4] = target: T2, human OX40 expressed on DO11.10 cells …; assay: cell-based or functional assay
hCD137-mFc-Avi = target: T5, hCD137-mFc-Avi (human); assay: SPR, antigen immobilised on CM5, mAb^2 at 1 nM and 1 µM
T5 construct: Dimer; a biotinylated version was used where the text says so; also called human CD137-mFc-Avi; hCD137-mFc-Avi-Bio
T5 sequence (chain, as listed by the source limits assumed): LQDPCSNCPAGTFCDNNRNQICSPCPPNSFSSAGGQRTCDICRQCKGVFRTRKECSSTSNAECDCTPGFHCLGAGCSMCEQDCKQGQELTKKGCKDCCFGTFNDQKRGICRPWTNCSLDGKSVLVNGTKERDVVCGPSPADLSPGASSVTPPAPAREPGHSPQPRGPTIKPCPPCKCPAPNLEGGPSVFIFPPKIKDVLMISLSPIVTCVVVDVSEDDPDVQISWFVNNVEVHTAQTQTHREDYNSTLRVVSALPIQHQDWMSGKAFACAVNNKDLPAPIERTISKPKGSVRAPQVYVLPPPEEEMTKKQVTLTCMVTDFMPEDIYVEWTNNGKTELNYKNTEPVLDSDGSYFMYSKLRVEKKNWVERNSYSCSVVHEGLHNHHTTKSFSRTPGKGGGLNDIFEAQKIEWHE

hOX40-mFc [5] = target: T3, hOX40-mFc; assay: as above
[6] = target: T6, human CD137 expressed on DO11.10 cells (DO11.10-hCD137) (human, UniProt Q07011 24-255); assay: cell-based or functional assay
Target sequence in this assay (Q07011 24-255): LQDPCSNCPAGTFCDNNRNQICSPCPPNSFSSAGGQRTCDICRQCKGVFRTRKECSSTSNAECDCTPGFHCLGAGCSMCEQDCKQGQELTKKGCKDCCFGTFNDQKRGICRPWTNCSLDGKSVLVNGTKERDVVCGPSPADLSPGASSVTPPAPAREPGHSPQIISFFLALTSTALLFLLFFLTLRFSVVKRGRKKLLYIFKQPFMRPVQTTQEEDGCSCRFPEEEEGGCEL

[7] = target: T7, mouse OX40 expressed on DO11.10 cells (DO11.10-mOX40) (mouse, UniProt P47741 20-272); assay: flow cytometry, fluorescently-labelled antibody on DO11.10-mOX40
T7 construct: Also used here for OX40 on primary mouse T cells in the functional rows; also called OX40 on mouse T cells
T7 sequence: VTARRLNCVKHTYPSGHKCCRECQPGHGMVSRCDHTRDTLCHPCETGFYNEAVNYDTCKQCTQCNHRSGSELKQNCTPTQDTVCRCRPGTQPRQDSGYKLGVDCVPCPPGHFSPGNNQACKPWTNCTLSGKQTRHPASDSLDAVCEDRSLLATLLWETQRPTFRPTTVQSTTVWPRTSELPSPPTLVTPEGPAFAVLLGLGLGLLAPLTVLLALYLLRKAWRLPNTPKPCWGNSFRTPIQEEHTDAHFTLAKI

[8] = target: T1, cynomolgus OX40 expressed on DO11.10 …; assay: flow cytometry on DO11.10 cells expressing the target, three experiments
Description: as §1
(§2) However, in this experiment, instead of using HEK cells to analyse the non-specific binding, non-transduced DO11.10 cells were used. […] The experiment was repeated three times to increase the reliability of the EC₅₀ values calculated.

[9] = target: T2, human OX40 expressed on DO11.10 cells …; assay: as above
Description: as §1, §2

[10] = target: T6, human CD137 expressed on DO11.10 cells …; assay: flow cytometry on DO11.10 cells expressing the target, mean ± SD of three experiments
Description: as §1, §2

[11] = target: T8, cynomolgus CD137 expressed on DO11.10 cells (DO11.10-cCD137) (cynomolgus monkey, UniProt Q07011 24-255 (human entry)); assay: as above
T8 chain: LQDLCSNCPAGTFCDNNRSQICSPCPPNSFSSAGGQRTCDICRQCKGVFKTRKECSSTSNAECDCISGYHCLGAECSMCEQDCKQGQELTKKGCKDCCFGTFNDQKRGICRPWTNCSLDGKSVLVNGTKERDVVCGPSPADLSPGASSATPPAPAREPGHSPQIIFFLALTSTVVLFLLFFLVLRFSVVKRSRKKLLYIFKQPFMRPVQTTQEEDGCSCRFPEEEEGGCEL
Description: as §1, §2

B3: antibody OX86 (Biolegend cat no 119408) (antibody, V domains shown)
VH: QVQLKESGPGLVQPSQTLSLTCTVSGFSLTGYNLHWVRQPPGKGLEWMGRMRYDGDTYYNSVLKSRLSISRDTSKNQVFLKMNSLQTDDTAIYYCTRDGRGDSFDYWGQGVMVTVSS
VL: DIVMTQGALPNPVPSGESASITCRSSQSLVYKDGQTYLNWFLQRPGQSPQLLTYWMSTRASGVSDRFSGSGSGTYFTLKISRVRAEDAGVYYCQQVREYPFTFGSGTKLEIK
- fluorescence over non-transduced cells (fold) [7]: ≥ 10 fold

B4: G1/FS30-10-16 (antibody, IgG1, V domains shown)
VH: EVQLLESGGGLVQPGGSLRLSCAASGFTFSSYDMSWVRQAPGKGLEWVSDIDPTGSKTDYADSVKGRFTISRDNSKNTLYLQMNSLRAEDTAVYYCARDLLVYGFDYWGQGTLVTVSS
VL: EIVLTQSPGTLSLSPGERATLSCRASQSVSSSYLAWYQQKPGQAPRLLIYGASSRATGIPDRFSGSGSGTDFTLTISRLEPEDFAVYYCQQSYSYPVTFGQGTKVEIKR
notes: IgG1 format; also called CD137 Fab (in IgG1 format; FS30-010-016)
- binding result [8]: no binding
- binding result [9]: no binding
- EC50 [10]: 0.1 nM
- EC50 [11]: 0.09 nM

Second part, the binder after the results:

- binding result [1]: no binding
- binding result [2]: no binding
- binding result (hOX40-mFc [3]): no binding (tested: 200 nM)
- binding result (cOX40-mFc): no binding (tested: 200 nM)
B1: G1/MOR7480.1 (antibody, human IgG1, lambda)
heavy: not shown
light: SYELTQPPSVSVSPGQTASITCSGDNIGDQYAHWYQQKPGQSPVLVIYQDKNRPSGIPERFSGSNSGNTATLTISGTQAMDEADYYCATYTGFGSLAVFGGGTKLTVLGQPKAAPSVTLFPPSSEELQANKATLVCLISDFYPGAVTVAWKADSSPVKAGVETTTPSKQSNNKYAASSYLSLTPEQWKSHRSYSCQVTHEGSTVEKTVAPTECS
notes: also called G1/M0R7480.1

- SEA assay (PBMC), hIL-2 max response, crosslinked [4]: 32200 pg/mL
- SEA assay (PBMC), hIL-2 max response, no crosslinker [4]: 32400 pg/mL
- SEA assay (PBMC), hIL-2 release EC50, crosslinked [4]: 0.14 nM
- SEA assay (PBMC), hIL-2 release EC50, no crosslinker [4]: 0.09 nM
- binding result (hCD137-mFc-Avi): binds
- binding result (hOX40-mFc [5]): binds
- EC50 of mIL-2 release, DO11.10-hCD137 assay, crosslinked [6]: 5.1 nM
- Emax of mIL-2 release, DO11.10-hCD137 assay, crosslinked [6]: 19800 pg/mL
B2: FS20-22-49AA/FS30-35-14 (bispecific antibody, human IgG1, kappa, L234A L235A, V domains shown)
VH: EVQLLESGGGLVQPGGSLRLSCAASGFTFSAYNIHWVRQAPGKGLEWVSDISPYGGATNYADSVKGRFTISRDNSKNTLYLQMNSLRAEDTAVYYCARNLYELSAYSYGADYWGQGTLVTVSS
VL: EIVLTQSPGTLSLSPGERATLSCRASQSVSSSYLAWYQQKPGQAPRLLIYGASSRATGIPDRFSGSGSGTDFTLTISRLEPEDFAVYYCQQYYYSSPITFGQGTKVEIKR
notes: IgG1 with LALA; also called OX40/CD137 mAb^2

Reference: patent US20220048996A1 (F STAR BETA, published 2022)
